In patent publication US9222947B2, “Anti-sAPPβ antibody” (SHIONOGI & CO., LTD., priority 2012, dated 2015):

Molecular target: sAPPβ (Homo sapiens, UniProt P05067)
Assay: Binding affinity on GLM chip using ProteOn (SPR)
Conditions: antibody immobilized, sAPPβ as analyte
Protocol: Binding affinity of the neoepitope antibody, 4G4 was immobilized on a GLM chip (BIO-RAD) and analyzed using a ProteOn (BIO-RAD). 4 different concentrations of sAPPβ (40, 20, 10, 5 nM) were injected as the analytes. […] Binding affinity of the internal antibody, 5H10 was immobilized on a GLM chip (BIO-RAD) and analyzed using a ProteOn (BIO-RAD). […] concentrations of sAPPβ (1000, 250, 62.5, 15.6, 3.91 nM) were injected as the analytes.

Chain of sAPPβ (P05067 18-671 limits assumed): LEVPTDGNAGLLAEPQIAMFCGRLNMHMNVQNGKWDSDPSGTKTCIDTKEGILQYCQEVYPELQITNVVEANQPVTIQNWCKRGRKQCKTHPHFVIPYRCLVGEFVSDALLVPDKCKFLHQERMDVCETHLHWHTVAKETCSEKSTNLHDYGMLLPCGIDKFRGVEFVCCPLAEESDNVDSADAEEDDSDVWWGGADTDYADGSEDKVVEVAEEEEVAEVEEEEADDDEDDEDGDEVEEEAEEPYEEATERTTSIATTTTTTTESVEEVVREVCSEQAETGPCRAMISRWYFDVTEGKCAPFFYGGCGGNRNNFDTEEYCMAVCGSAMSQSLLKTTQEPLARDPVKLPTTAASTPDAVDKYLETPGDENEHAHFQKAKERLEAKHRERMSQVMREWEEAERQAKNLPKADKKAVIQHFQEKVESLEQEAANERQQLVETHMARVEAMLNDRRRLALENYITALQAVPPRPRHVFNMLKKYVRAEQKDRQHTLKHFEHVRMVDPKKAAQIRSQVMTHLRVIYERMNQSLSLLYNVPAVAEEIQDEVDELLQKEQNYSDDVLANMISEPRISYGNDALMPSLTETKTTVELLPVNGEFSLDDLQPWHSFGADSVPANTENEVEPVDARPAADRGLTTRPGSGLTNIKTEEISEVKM

B1: 5H10: mouse monoclonal antibody recognizing the internal structure/C-terminal fragments of sAPPβ; VH SEQ ID NO: 14, VL SEQ ID NO: 15 (antibody, V domains shown)
VH: QVQLQQSGTELAKPGASVKMSCKASGYTFIDYWMHWIKQSPGQGLEWIGFINPRSGSTTYNQKFRDKATLTVDTSSSTAYMQLTSLTSEDSAVYYCTRPDFDYFDYWGQGTTLTVSS
VL: DVLMTQTPLSLPVSLGDHASISCRSSQSIVQSNGNTYLEWYLQKPGQSPKLLIYKVSNRFSGVPDRFSGSGSGTDFTLKISSVEAEDLGIYYCFQASHVPLTFGAGTKLELKRA
modifications: VH of antibody 5H10; VL of antibody 5H10
Work on B1 yielded a Kd of 0.62 nM.
